The source of these data is patent US20160024208A1 (Regeneron, published 2016).

Test [1] concerns the target T1, Native Nav1.7 (3-1) peptide, rat (rat).
T1 construct: Synthetic peptide; also called Rat Nav1.7 3-1 native
T1 peptide: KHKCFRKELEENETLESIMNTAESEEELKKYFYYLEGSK
As to the kind of experiment: SPR, captured antibody, peptide analyte. As to the method: (§1) The binding affinities of anti-Naᵥ 1.7 antibodies to Naᵥ 1.7 loop peptides were determined by Biacore. For monovalent kinetic experiments, antibodies were captured through the Fc region via a goat anti-Fc-coupled biosensor surface, and the peptides (as analyte) were injected over this captured antibody surface. For bivalent (avidity-driven) kinetic experiments, biotinylated peptides corresponding to the Naᵥ 1.7 3-1, 3-3, or paddle loop sequences were captured on a NeutrAvidin sensor surface, and anti-Naᵥ 1.7 antibodies (as analyte) were injected over this surface. Following the capture step, each analyte was individually injected at several concentrations over its respective capture surface, and changes in bound surface units (RU) were monitored. The dissociation rate is independent of the concentration of analyte used in the experiment, and the dissociation rate constant (kd) was determined from the change in antibody-bound analyte RU over time. The Biacore kinetic data were obtained using a double referencing procedure. The double referencing was conducted by first subtracting any interaction of the analyte over the reference surface (i.e., the anti-Fc coupled surface alone or the NeutrAvidin surface alone), thereby correcting for nonspecific binding to capture surface and for refractive index changes. Control buffer injections (no analyte) over the antibody- or peptide-captured surfaces were also performed to allow subtraction of RU signal changes resulting from the natural dissociation of captured binding partner from the sensor surface. The kinetic parameters were obtained by globally fitting the data for all concentrations tested for a given peptide or antibody to a 1:1 binding model using Biacore T100 Evaluation Software version 2.0.2. The KD was calculated as the dissociation rate constant divided by the association rate constant (KD=kd/kₐ). The dissociative half-life (t_{1/2}) was calculated from the dissociation rate constant (t_{1/2}=In2/kd).

Test [2] deals with T2, N-Term Biotin Nav1.7 (3-1) peptide, mouse (mouse, not fully specified; N-terminal biotin attached via a G4S linker).
T2 construct: Synthetic peptide; also called Mouse Nav1.7 3-1 N-term biotin
T2 peptide: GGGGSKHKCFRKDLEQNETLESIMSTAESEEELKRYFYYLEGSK
Description: SPR, captured antibody, peptide analyte. As to the method:
as §1
On the technique in general: Surface plasmon resonance follows binding to a sensor surface in real time, without labels.

Test [3] addresses T3, Native Nav1.7 (3-1) peptide, human (human).
T3 construct: Synthetic peptide (Celtek), unbiotinylated; also called Human Nav1.7 3-1 native; Nav1.7 3-1 native peptide
T3 peptide: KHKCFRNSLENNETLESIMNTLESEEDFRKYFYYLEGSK
Description: SPR, captured antibody, peptide analyte. As to the method: as §1

Test [4] deals with T4, N-Term Biotin Nav1.7 (3-1) peptide, mulatta (mulatta (monkey), not fully specified; N-terminal biotin attached via a G4S linker).
T4 construct: Synthetic peptide; also called Mulatta Nav1.7 3-1 N-term biotin; monkey
T4 peptide: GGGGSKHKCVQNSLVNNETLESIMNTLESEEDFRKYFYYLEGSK
As to the kind of experiment: SPR, captured antibody, peptide analyte. As for the experimental part: as §1

Test [5] deals with T5, C-term Biotin Nav1.7 (3-1) peptide, human (human, not fully specified; C-terminal biotin attached via a G4S linker).
T5 construct: Synthetic peptide; also called Human Nav1.7 3-1 C-term biotin
T5 peptide: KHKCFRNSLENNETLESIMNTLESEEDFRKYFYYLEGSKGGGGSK
Description: SPR, captured biotin-peptide, antibody analyte. As for the experimental part:
as §1

The target of test [6] is full-length human Nav1.7 fused at its N-terminus to GFP, expressed in HEK293 cells (human, UniProt Q15858 1-1988). Description: cell-based or functional assay.
Test [7] has as its target T6, N-Term Biotin-Nav1.7 (3-1) peptide, human (human, not fully specified; N-terminal biotin attached via a G4S linker).
T6 construct: ELISA peptide
T6 peptide: T4 peptide with V10F, Q11R, V15E
Description: ELISA on coated peptide, antibody 1 ug/ml, OD450 grade. As to the method: (§2) Anti-Naᵥ 1.7 antibodies were tested for their ability to bind to the Naᵥ 1.7 peptides. The various peptides were coated overnight onto 96-well Nunc Immunosorp plates at a concentration of 4 μg/mL in PBS, followed by blocking for 1 hour in a suitable blocking agent. For biotinylated peptides, avidin was first coated on Nunc Immunosorp plates at 2 μg/mL in PBS overnight, followed by blocking as described, and the plate was then coated with biotinylated peptides at a concentration of 0.4 μg/mL and incubated for 1 hour at room temperature. Purified anti-Naᵥ 1.7 antibodies were diluted to a final concentration of 0.1 μg/mL and 1.0 μg/mL and added to the wells of the coated microtiter plates followed by incubation for 1 hour at room temperature. Bound antibodies were detected with horseradish peroxidase (HRP) conjugated anti-mouse or anti-human IgG (Jackson Immuno Research Lab, West Grove, Pa.) depending on the antibody species and developed by colorimetric response using tetramethylbenzidine (TMB) substrate (BD Biosciences). Absorbance was read at OD₄₅₀ on a plate reader for 0.1 second.
(§3) Values in Table 11 represent absolute binding ranges (at OD450) to plate-coated peptides for antibodies added at 1 μg/ml as follows: OD450<0.2: −; 0.2<OD450<1: +; 1<OD450<2: ++; 2<OD450<4: +++; NT: Not Tested.
In general terms: An ELISA detects its analyte on a solid surface through an enzyme-linked reagent.

The target in test [8] is T4, N-Term Biotin Nav1.7 (3-1) peptide, …. Described as above. As for the experimental part: as §2, §3
Test [9] deals with T1, Native Nav1.7 (3-1) peptide, rat. Described as above. As to the method:
as §2, §3

Changes are numbered by the printed parent chain.

B1: H1H1025B (antibody, V domains shown)
VH: QVQLVESGGGVVQPGRSLRLSCAASGFTFSNYGMHWVRQAPGKGLEWVAAIWFDGSNKKYVDSVKGRFTISRDNSKNTLYLQMNSLRAGDTAVYYCTRDRSGSFDYWGQGTLVTVSS
VL: DIQLTQSPSSLSASVGDRVTITCRASQGIRNDLGWYQQKPGKAPKRLIYAASSLQSGVPSRFSGSGSGTEFTLTISSLQPEDFATYYCLQHNSYPCTFGQGTKVEIKR
notes: Fully human antibody; 722/724 at r244); the full pair is used
Consider B1, for which the binding result in test [1] and in [2] was “no binding” throughout.

B2: H4H395B (antibody, V domains shown)
VH: EVQLVESGGGLVQPGGSLRLSCAASGFTFSSYGMSWVRQVPGKGLEWVSAISGSGGSTYYVDSVKGRFTISRDNFKNTLYLQMNSLRVEDTAVYYCAKDVGYCSTTSCRGDAFDVWGQGTMVTVSS
VL: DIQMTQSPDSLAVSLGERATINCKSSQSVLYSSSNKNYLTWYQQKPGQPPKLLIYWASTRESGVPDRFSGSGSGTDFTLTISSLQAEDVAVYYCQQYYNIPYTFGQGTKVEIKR
notes: Fully human antibody; 685/687 at r237); the full pair is used; also called H4H395N
The term Kd denotes the constant that tells how readily two partners part at equilibrium. As for B2, the values for the dissociation constant Kd in test [3], in test [4] and in test [5] were 13.2 nM, 2.5 nM and 0.0252 nM, respectively. Further, the values for the t1/2 in test [3], in test [4] and in test [5] were 20.7 min, 34 min and 108 min, respectively. Further, the binding result in [1] is recorded as “no binding”. In addition, the “Current blocking (Average % inhibition), IonWorks Quattro, 223 nM antibody” value (“Current blocking (Average % inhibition)” below) in test [6] worked out at 57%.

B3: H4H434B (antibody, V domains shown)
VH: QVQLVQSGGGLVQPGGSLRLSCAASGFTFSNYAMSWVRQAPGKGLEWVSAISGSGDNTYYADSVRGRFTISRDNSKNTLYLQMNSLRAEDTAIYYCAKDPHSSRWPGFFDLWGRGTLVTVSS
VL: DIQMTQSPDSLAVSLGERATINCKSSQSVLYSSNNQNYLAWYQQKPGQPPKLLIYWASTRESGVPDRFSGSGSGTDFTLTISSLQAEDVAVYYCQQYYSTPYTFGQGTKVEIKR
notes: Fully human antibody
As for B3, the Kd came out at 21.4 nM in [3]; 107 nM in [1]; 8.98 nM in test [2]; 3.68 nM in test [4]; 0.334 nM in test [5]. Further, the t1/2 in [3] came to 2.5 min; in test [1] it was 0.17 min; in test [2], 3.4 min; in test [4] it was 4.7 min; in test [5], 114 min. In addition, the “Current blocking (Average % inhibition)” value in test [6] worked out at 17.5%.

B4: H1H1068B (antibody, V domains shown)
VH: QVQLVQSGAEVKKPGASVKVSCKASGYTFTSYGVSWVRQAPGQGLEWMGWISAYNGNTNYAQKLQGRVTMTTDTSTSTAYMELTSLRSDDTAVYYCARNWGDYWGQGTLVTVSS
VL: not shown
notes: Fully human antibody; the full pair is used
On to B4, for which the Kd in test [3] was found to be 236 nM; in test [4] it was 42.6 nM; in test [5] it was 200 nM. Besides, the t1/2 worked out at 0.16 min in [3], 0.34 min in test [4] and 0.3 min in test [5]. In addition, the “Current blocking (Average % inhibition)” value in test [6] was 34%.

B5: H4H385B (antibody, V domains shown)
VH: QVQLVESGGGVVQPGRSLRLSCAASGFTFSSYGMHWVRQAPGKGLEWVALISYVGSNKHYADSVKGRFTISRDNSKNTLYLQMNSLRAEDTAVYYCAKSRGYSYGLDYWGQGTLVTVSS
VL: DIQMTQSPDSLAVSLGERATINCKSSQTVLHSSNNQNNLVWYQQKPGQPPKLLIYWASTRESGVPDRFSGSGSGTDFTLTISSLQAEDVAIYYCQQYYSTPYTFGQGTKLEIKR
notes: Fully human antibody
As for B5, the Kd in test [3] turned out to be 188 nM; in test [4], 29.3 nM; in test [5], 0.443 nM. The results for the t1/2 in [3], in test [4] and in test [5] were 0.8 min, 3.1 min and 73.2 min, respectively. Also, the binding result in [1] and in test [2] was “no binding” throughout. Moreover, the “Current blocking (Average % inhibition)” value in [6] is 31%.

B6: H4H391B (antibody, V domains shown)
VH: B5 VH with E6Q, L50V, V54E, Y94F, K98Q, D107G
VL: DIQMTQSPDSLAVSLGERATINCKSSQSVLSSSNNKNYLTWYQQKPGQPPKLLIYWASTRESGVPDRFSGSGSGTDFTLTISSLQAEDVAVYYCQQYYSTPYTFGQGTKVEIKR
As to B6, the OD450 in [7] and in test [8] was 2 to 4 od in each case. Besides, in test [6], the “Current blocking (Average % inhibition)” value turned out to be 48%.

B7: H4H382B (antibody, V domains shown)
VH: B5 VH with Q1E, E6Q, A23E, L50V, V54D, A61T, Y95F, K98Q, D107G
VL: B5 VL with T28S, H31S, Q36E, N38Y, S62P, S71G, I91V, Y98H, T100I, L110V
Consider B7, for which the OD450 in [7] and in test [8] was 2 to 4 od throughout. Moreover, the results for the Kd in test [3], in test [4] and in test [5] were 38.9 nM, 13.1 nM and 1.04 nM, respectively. The figures for the t1/2 in test [3], in [4] and in test [5] were 3.3 min, 6 min and 92.9 min, respectively.

B8: H4H443B (antibody, V domains shown)
VH: QVQLVESGGGLVQPGRSLRLSCAASGFTFDDYAMHWVRQVPGKGLEWVSGINWNSGSIGYADSVKGRFTISRDNAKNSLFLQMNSLRAEDTALYYCAKDIEYYDILTGYYSYYIMDVWGQGTTVTVSS
VL: DIQMTQSPSFLSASVGDRVTITCWASQGISSYLAWYQQKPGKAPKLLIYASSTLQSGVPSRFSGSGSGTEFTLTISSLQPEDFATYYCQQFNSYPPTFGQGTKVEIKR
On to B8, for which the OD450 in test [9] fell in the range of 1 to 2 od. Moreover, in test [1], the equilibrium dissociation constant (Kd) worked out at 176 nM and the t1/2 stood at 0.48 min.

B9: H4H438B (antibody, V domains shown)
VH: QVQLQQWGAGLLTPSETLSLTCAVYGGSFSGHYWSWIRQPPGKGLEWIGEINPRGSTNYKPSLKSRVTISVDTSKNQFSLNLRSVTAADTAMYYCAREGNLAARLWFFDLWGRGTLVTVSS
VL: DIQMTQSPSSLSASVGDRGTITCRTSQSIRSYLNWYQQKPGKAPKLLIYAASSLQSGVPSRFSGSGSGTDFTLTISSLQPEDFATYFCQQSYSSPFTFGQGTKVEIKR
notes: Fully human antibody
As to B9, the dissociation constant Kd in test [3] was 2.73 nM; in test [1], 77 nM; in [4], 0.54 nM; in [5], 0.614 nM. In addition, the t1/2 stood at 30.2 min in test [3], 0.56 min in test [1], 111 min in test [4] and 118 min in test [5]. For the same molecule, in test [2], the binding result is on record as “no binding”. Also, in test [6], the “Current blocking (Average % inhibition)” value amounted to 43.5%.

B10: H4H441B (antibody, V domains shown)
VH: QVQLQQWGAGLLKPSETLSLTCAVYGGSFSGHYWTWIRQPPGKGLEWIGEINHRGNTNYNPSLKSRATISVDTSKNQFSLKLSSVTAADTAVYYCAREGSLAARLWFFDLWGRDTPVTVSS
VL: B9 VL with I21V, T25A, S28N, S31T, F87Y, S93G, S94T, F96Y
notes: as for B4
Regarding B10, the Kd in test [3] came out at 6.58 nM; in [1], 178 nM; in test [4], 0.439 nM; in test [5], 0.703 nM. In addition, the t1/2 amounted to 12.5 min in [3], 0.39 min in [1], 128 min in test [4] and 86.9 min in test [5]. For the same molecule, in [2], the binding result was “no binding”.
